Substrate: CC(=O)Oc1ccc([N+](=O)[O-])cc1
Test: purified protein
Format: biochemical, Evansstolkia leycettana
Details: optimal conditions, 55 °C, 20 mM citric acid-Na2HPO4 pH 6.0 (standard assay), free enzyme

Protein | Km | Vmax | kcat | kcat/Km
AXE + CBM1 (Evansstolkia leycettana) (protein, mature full-length: hydrolase domain 20-309, S/T-rich linker 310-342, CBM1 343-380; signal peptide removed; no tag stated; pPIC9, secreted from Pichia pastoris GS115) VAVDHDGARLARRITRGSLQQVTNFGSNPTNVGMYIYVPNNLATNPGIVVAIHYCTGSAQAYYSGSPYAQLAEQYGFIVIYPSSPYSGTCWDVSSQAALTHNGGGDSNSIANMVTWTISQFNADTSKVFVTGSSSGAMMTNVMAATYPELFAAATVYSGVPAGCFVSSTNQVDAWNSSCAQGQVIDTPAQWASVAENMYPGYTGPRPRMQIYHGSVDTTLYPQNYYETCKQWAGVFGYNYDSPQQTINNDPEANYQTTIWGPNLQGIFATGVGHTVPIHGTQDMEWFGFAGESTGGGTTTTSATTTTTSKPTSTTSSGGSTSTAVAQHWGQCGGIGWTGPTTCVSPYTCTFVNDYYYQCL | 0.5 ± 0.02 mM | 455 µmol/min/mg | 306 ± 9 s⁻¹ | 612000 ± 12000 M⁻¹ s⁻¹
AXE (Evansstolkia leycettana) (protein, hydrolase domain only, linker and CBM1 (310-380) removed; signal peptide removed; no tag stated; pPIC9, secreted from Pichia pastoris GS115) VAVDHDGARLARRITRGSLQQVTNFGSNPTNVGMYIYVPNNLATNPGIVVAIHYCTGSAQAYYSGSPYAQLAEQYGFIVIYPSSPYSGTCWDVSSQAALTHNGGGDSNSIANMVTWTISQFNADTSKVFVTGSSSGAMMTNVMAATYPELFAAATVYSGVPAGCFVSSTNQVDAWNSSCAQGQVIDTPAQWASVAENMYPGYTGPRPRMQIYHGSVDTTLYPQNYYETCKQWAGVFGYNYDSPQQTINNDPEANYQTTIWGPNLQGIFATGVGHTVPIHGTQDMEWFGFA | 0.72 ± 0.03 mM | 625 µmol/min/mg | 326 ± 17 s⁻¹ | 453000 ± 18000 M⁻¹ s⁻¹

From paper PMC6351639, “Synergistic effect of acetyl xylan esterase from Talaromyces leycettanus JCM12802 and xylanase from Neocallimastix patriciarum achieved by introducing carbohydrate-binding module-1” (AMB Express, 2019)
